Assay results taken from US20260062466A1.

Tests used:
Experiment in all cases: cell-based or functional assay
[1] = target: ONNV (O'nyong'nyong virus, MP30) envelope glycoproteins (O'nyong'nyong virus strain MP30)
[2] = target: CHIKV-LR 2006 (virus) (Chikungunya virus strain LR 2006)
[3] = target: CHIKV-37997 (virus) (Chikungunya virus strain 37997) (UniProt Q5XXP3)
Sequence of CHIKV-37997 (virus) (Chikungunya virus strain 37997) (Q5XXP3 326-748 limits assumed, chain 1 of 2): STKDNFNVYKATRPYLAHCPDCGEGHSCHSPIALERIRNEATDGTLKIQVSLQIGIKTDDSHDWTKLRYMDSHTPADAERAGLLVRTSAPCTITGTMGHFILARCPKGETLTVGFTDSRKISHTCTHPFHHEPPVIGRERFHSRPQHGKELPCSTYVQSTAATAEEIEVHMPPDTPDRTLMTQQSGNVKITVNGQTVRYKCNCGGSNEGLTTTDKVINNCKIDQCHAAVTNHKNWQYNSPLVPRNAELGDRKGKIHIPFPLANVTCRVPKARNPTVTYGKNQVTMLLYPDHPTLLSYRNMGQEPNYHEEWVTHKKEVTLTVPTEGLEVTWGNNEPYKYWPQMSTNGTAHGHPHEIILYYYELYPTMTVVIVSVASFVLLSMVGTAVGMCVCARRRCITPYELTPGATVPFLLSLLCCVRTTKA
Sequence of CHIKV-37997 (virus) (Chikungunya virus strain 37997) (Q5XXP3 810-1248 limits assumed, chain 2 of 2): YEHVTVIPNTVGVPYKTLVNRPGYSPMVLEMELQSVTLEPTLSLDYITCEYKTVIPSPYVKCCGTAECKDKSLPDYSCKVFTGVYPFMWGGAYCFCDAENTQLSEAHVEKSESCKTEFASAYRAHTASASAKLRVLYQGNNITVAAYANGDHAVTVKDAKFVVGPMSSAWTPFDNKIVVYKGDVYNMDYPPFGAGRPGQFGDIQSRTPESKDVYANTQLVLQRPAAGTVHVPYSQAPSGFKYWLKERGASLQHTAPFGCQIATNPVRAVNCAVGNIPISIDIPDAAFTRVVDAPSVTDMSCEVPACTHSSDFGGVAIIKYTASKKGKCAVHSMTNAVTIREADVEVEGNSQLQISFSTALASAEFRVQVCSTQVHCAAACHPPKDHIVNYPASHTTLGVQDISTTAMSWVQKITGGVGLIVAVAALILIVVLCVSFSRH

B1: 506.C01 (antibody, V domains shown)
VH: QVQLQESGPGLVKPSQTLSLTCTVSGGSISSDDYYWTWIRLPPGKGLEWIGYIFYTGGTYYNPSLKSRVTISLDRSKNQFSLKLSSVTAADTAVYFCARAPETYCSTTNCYKGYFDSWGQGTLVTVSS
VL: DIQMTQSPSSVSASVGDRVTITCRASQGISSWLGWYQQKPGKAPKLLIYAASSLQSGVPSRFSGSGSGTDFTLTISSLQPEDFATYYCQQANSFPRTFGQGTKVEIK
- FRNT neutralisation of ONNV, EC50 [1]: < 0.05 µg/mL

B2: 516.H07 (antibody, V domains shown)
VH: EVQLVESGGGLVQPGGSLRLSCAASGFTFSSYEMNWVRQAPGKGLEWVSYMSYTGSTIYYADSVKGRFTISRDNGKNSLYLQMNSLRVEDTAVYYCARGGVVVAPTYFDYWGQGTLVTVSS
VL: QSVLTQPPSVSGAPGQRVTISCTGSSSNIGAGYDVHWYQQLPGTAPKLLIYHNNNRPSGVPDRFSASKSGTSASLAITGLQAEDEADYYCQSYDSSLSGWVFGGGTKLTVL
- FRNT neutralisation, LR 2006 EC50 [2]: 0.061 µg/mL
- FRNT neutralisation, 37997 EC50 [3]: 0.91 µg/mL
- FRNT neutralisation of ONNV, EC50 [1]: < 0.05 µg/mL

B3: 516.H09 (antibody, V domains shown)
VH: QLQLQESGPGLVKPSETLSLTCTVSGGSISSSSYYWGWIRQPPGKGLEWIGSIYYSGSTYYNPSLKSRVTISVDTSKNQFSLKLSSVTAADTAVYYCARHSYCSGGSCYLAPLGDWGQGTLVTVSS
VL: SYVLTQPPSVSVAPGKTARITCGGNNIGSKSVHWYQQKPGQAPVLVIYYDSDRPSGIPERFSGSNSGNTATLTISRVEAGDEADYYCQVWDSSSDFYVFGTGTKVTVL
- FRNT neutralisation, LR 2006 EC50 [2]: 0.182 µg/mL
- FRNT neutralisation, 37997 EC50 [3]: 0.526 µg/mL

B4: 516.D09 (antibody, V domains shown)
VH: QVQLVQSGAEVKKPGSSVKVSCKAFGGTFSSSAITWVRQAPGQGLEWMGRIIPIFGTANYAQKFQGRVTITADKSTTTAYMELSSLRSEDTAVYYCALKADSYCSGSSCYPSFDYWGQGTLVTVSS
VL: SYVLTQPPSVSVAPGKTARITCGGNNIGSKSVHWYQQRPGQAPVLVVYDDSDRPSGIPERFSGSNSGNTATLTISRVEAGDEADYYCQVWDSSSDQEVFGGGTKLTVL
- FRNT neutralisation, LR 2006 EC50 [2]: 0.248 µg/mL
- FRNT neutralisation, 37997 EC50 [3]: 0.35 µg/mL

B5: 520.D02 (antibody, V domains shown)
VH: QVQLVQSGSELQKPGASVKVSCKASGYTFTENAIIWVRQAPGQGLEWMGRIIRYPGRPTIAQGFTGRFGFSLDTSINTAYLEISNLKAEDTAFFYCAREYCDSSSCSSFDYWGQGTLVTVSS
VL: QSVLTQPPSASGSPGQSVTISCTGTNNDVGIYSYVSWYQQHPGKAPKLMIYEVSKRPSGVPDRFSGSKSGNTASLTVSGLQADDEADYYCSSYAGSNSYVFGSGTKVTVL
- FRNT neutralisation, LR 2006 EC50 [2]: 0.005 µg/mL
- FRNT neutralisation, 37997 EC50 [3]: 0.002 µg/mL

B6: 516.F07 (antibody, V domains shown)
VH: EVQLVQSGAEVKKPGESLKISCKGSGYRFTSYWIAWVRQMPGKGLECMGIIYPGDSDTRYSPSFQGQVTISVDKSISTAYLQWSSLKASDTAMFYCARHNNNWSLQGYFDYWGQGTLVTVSS
VL: PSALTQPASVSGSPGQSITISCTGTSSDVGGYNYVSWYQQHPGKAPKLMIYDVSNRSSGVSNRFSGSKSGNTASLTISGLQAEDEADYYCSSYTGSSTSNYVFGTGTKVTVL
- FRNT neutralisation, LR 2006 EC50 [2]: 0.031 µg/mL
- FRNT neutralisation, 37997 EC50 [3]: 0.004 µg/mL
